Measured values: the supplement of paper PMC12042874
± gives the uncertainty stated by the source.

Assay: amyloid nucleation score (Sup35N fusion, yeast selection) (log enrichment); library NNK1; higher = more nucleation; inactive = no reads after selection
In short: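 The nucleation score is the log enrichment of output over input reads, calculated with DiMSum and centred on the mode score of non-aggregating sequences. Sequences with under 100 input reads were excluded. Reads came from Illumina sequencing of plasmid inserts from psi-negative yeast expressing Sup35N fused to peptides of 20 random codons, induced 24 hours with 100 μM copper sulfate and grown 7 days at 30°C without adenine and uracil.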

Row | Substance | amyloid nucleation score
1 | AVMPHCSCTRNQRFRLVSMH | 0.707 ± 0.85
2 | KYLFFMVFQWS | 0.439 ± 0.84
3 | VYITVFMIAYMLLSDTDHE | 0.377 ± 0.31
4 | GIENLRTDV | 1.34 ± 0.37
5 | SSNSPCMPVRRTADNPSPYA | 0.239 ± 0.51
6 | LRASAWHQFHFAV | 0.376 ± 0.78
7 | MCLTRSSLEVRQVTIVMWSG | 0.387 ± 0.52
8 | ISKISPFECGPVVAQ | 1.12 ± 0.73
9 | IIGSEARLD | inactive
10 | CDVLELFKNTVGSFGGIVVS | 0.204 ± 0.79
11 | IRCLGISRIFLVYRSVPFWI | 0.413 ± 0.57
12 | LTMLYMLLCDNSLMRDILPD | 0.951 ± 0.88
13 | MARVC | -1.56 ± 2.4
14 | RNRYTFSIRLVQTDYCFLGM | 1.63 ± 0.19
15 | IIKDDLRMCWDGKRYWNSLI | 0.713 ± 0.32
16 | SECLLYSWRVILSRLSPESE | 0.257 ± 0.62
17 | HRFSCG | inactive
18 | GRLISETNLAKSYSL | -0.187 ± 0.33
19 | FRYIYMMDMSSYQYVKRGSS | inactive
20 | YMASDEVNI | -0.232 ± 0.26
21 | RYYGLFVYVARIYSALRSCK | -0.104 ± 0.33
22 | LLLSSLTDFHVVDRLIKQAW | -0.003 ± 0.41

Row | Substance | amyloid nucleation score
23 | VSNERSWMRCFFMGSRIAHG | -0.735 ± 0.4
24 | CHYVKPVFTICQVPTFIESI | 1.43 ± 0.51
25 | VGSKVYMTSAAMYFVNRGFV | 6.11 ± 0.081
26 | GFRYEPNWSLSFPGV | 0.214 ± 0.41
27 | GEIGNIPLMKRRTEWQFVVA | 0.25 ± 0.47
28 | KLREFAVLTLESGSFSVYCW | -1.14 ± 1.2
29 | LPCKIKKWIHWEFRSEFN | -2.06 ± 2.7
30 | RAAYACWHFTLYNFSLIVTT | 1.83 ± 0.57
31 | IEVKSWYATPNFGSQLSKRD | 0.274 ± 0.45
32 | ITLKF | -0.381 ± 0.43
33 | YKVCRMCAKGCSDSFRPVRA | 0.555 ± 0.48
34 | RIASSRVFFAFFRSLYMSGW | 0.995 ± 0.47
35 | STALLS | 0.21 ± 0.74
36 | LILCCPYNFNLVLMCCPKVG | 7.268 ± 0.049
37 | PSTVCMFPRWLAVVRLVLQT | 0.79 ± 0.35
38 | LARTMYCYIVSEKVLWSGVG | 2.15 ± 0.1
39 | ILESCIWDITRLRWPYGSSW | 0.741 ± 0.21
40 | ILENTVCSIFVSVVIANVGL | 1.94 ± 0.53
41 | CRVPIRCRGDLLSLRAVRFR | 1.88 ± 0.14
42 | WPLRESCGICERRAWCRSAY | 0.923 ± 0.63
43 | PWYVIKV | -0.055 ± 0.31
44 | CSHANETW | 0.593 ± 0.55

Row | Substance | amyloid nucleation score
45 | CYNNSCDKWGWASM | 1.22 ± 0.53
46 | WWSYQF | 0.725 ± 0.39
47 | SNQTLPWYK | 0.043 ± 0.53
48 | STNWFNYSNGNTVWDIGDYL | 0.4 ± 0.32
49 | LRFLWRRRS | 0.949 ± 0.28
50 | GLASVRILGRMQV | -0.106 ± 0.36
51 | ELYCEVSSKIAGLDLFV | 0.57 ± 0.78
52 | DETWLSLQVNLLLFYSRMDM | -0.153 ± 0.66
53 | PNYDVMSLYRTNYGNYSHSV | 0.471 ± 0.38
54 | KLRRDSFVFQVKFHLNKGML | -0.384 ± 0.46
55 | KSTTLLVGSRSCGAHLQRLH | 0.462 ± 0.37
56 | LRHFSRSF | 0.16 ± 0.29
57 | RSLFRECEKIVDRHSMSNFH | 0.445 ± 0.4
58 | RGNLESFVLGNIRVTNP | 1.01 ± 0.18
59 | VMRPFWMMMFYFYVEPEALS | -0.584 ± 0.95
60 | KDQKISVIMFILMRVPLY | 0.546 ± 0.45
61 | FDAMSANLESIYFSFNENMY | -0.572 ± 0.56
62 | MSGVRYLCCL | 0.087 ± 0.58
63 | EYLLNNPVGRCFDLLFNSIG | -0.881 ± 0.66
64 | GSELCGVGARSQDSRIAGRV | -0.282 ± 0.49
65 | TRLVVLRSW | 1.14 ± 0.98
66 | YSYFWVAWF | 0.329 ± 0.4

Row | Substance | amyloid nucleation score
67 | FPCSRIELVVSVCVAWVNSC | 1.42 ± 0.28
68 | MLEESVLHSLLICGANSVFK | 0.195 ± 1.1
69 | TLNKARSDYFLKRSSE | -0.025 ± 1
70 | VNFILNF | 5.41 ± 0.066
71 | FSKCSFT | -0.169 ± 0.69
72 | MAVSNLSDLRLMSMRHFS | -0.794 ± 0.95
73 | IYQKGMVLGATRNGFSRCKG | -0.173 ± 0.3
74 | RTEGVET | -0.251 ± 0.58
75 | LCLTKNMCTSIVRVRALVCR | -0.161 ± 0.26
76 | MGILW | -0.328 ± 0.66
77 | CWCMFCTASL | 7.637 ± 0.064
78 | LIALLLAWDMYI | 0.18 ± 0.32
79 | FFCLSIHVYSG | 0.46 ± 0.97
80 | AMQGACGFISGGFSVARVFV | 0.296 ± 0.25
81 | WSIKFQS | -0.123 ± 0.49
82 | GRFRARIHCSPQARVTFVAS | -0.113 ± 0.71
83 | AMNFWRKILIFSELVYG | 2.19 ± 0.5
84 | HRWTLMEVYITGIALKYVVY | -0.58 ± 0.76
85 | FELGWMYSYKMAKLPWYMTC | 0.362 ± 0.99
86 | TFSDFIQKGWRFIFKYPFRC | 0.686 ± 0.35
